Assay results taken from paper PMC9789309.
pKd: −log10 of the molar value.

Biological target: ACE2, membrane-anchored, endogenously expressed on VeroE6 cells (African green monkey (endogenous in VeroE6))
Assay: single-molecule force spectroscopy (AFM)

SARS-CoV-2 Spike receptor binding domain, Wuhan reference strain, monomer (from UniProt P0DTC2 319-541) (domain or fragment)
pKd: 8.49
koff: 0.00032 s⁻¹
kon: 100000 M⁻¹ s⁻¹
